Results published in patent publication US12679878B2, “CRF2 receptor agonists and their use in therapy” (SANOFI, priority 2020, dated 2026).
Starred links: 1 amine or outer side, 2 acyl side, 3 side chain; linkers in the order of their positions; H or OH if unused. Non-standard residues stand in square brackets, D forms with d. Groups on a side chain read outwards from the residue. No end group written: not given here. *: point of attachment. C16 diacid = O=C(O)CCCCCCCCCCCCCCC(=O)*; γGlu = O=C(O)[C@H](CCC(=O)[*:2])N[*:1]; Palmitoyl = CCCCCCCCCCCCCCCC(=O)*; Aib = CC(C)(N)C(=O)O

T1: CRF1R receptor (anti-target) (UniProt P34998 24-415, limits assumed)
T1 sequence (looked up): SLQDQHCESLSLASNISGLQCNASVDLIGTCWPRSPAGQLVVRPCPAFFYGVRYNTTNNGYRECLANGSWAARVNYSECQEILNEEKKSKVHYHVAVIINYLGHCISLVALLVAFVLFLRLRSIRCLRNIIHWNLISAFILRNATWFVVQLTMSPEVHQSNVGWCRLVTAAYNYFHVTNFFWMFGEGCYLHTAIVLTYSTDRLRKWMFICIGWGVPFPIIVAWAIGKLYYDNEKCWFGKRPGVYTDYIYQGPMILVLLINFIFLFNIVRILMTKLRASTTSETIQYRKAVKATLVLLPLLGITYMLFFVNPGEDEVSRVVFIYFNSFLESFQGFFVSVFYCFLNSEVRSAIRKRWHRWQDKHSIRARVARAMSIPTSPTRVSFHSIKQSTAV

B1: peptide of SEQ ID NO: 188 (peptide)
peptide: IVLSLD[dV]PIKLK([γGlu-C16 diacid])QILLKQERQK[Aib]QRQQAEKNKQILAQV-NH2
modifications: N-terminus assumed
SMILES: CC[C@H](C)[C@H](N)C(=O)N[C@H](C(=O)N[C@@H](CC(C)C)C(=O)N[C@@H](CO)C(=O)N[C@@H](CC(C)C)C(=O)N[C@@H](CC(=O)O)C(=O)N[C@@H](C(=O)N1CCC[C@H]1C(=O)N[C@H](C(=O)N[C@@H](CCCCN)C(=O)N[C@@H](CC(C)C)C(=O)N[C@@H](CCCCNC(=O)CC[C@H](NC(=O)CCCCCCCCCCCCCCC(=O)O)C(=O)O)C(=O)N[C@@H](CCC(N)=O)C(=O)N[C@H](C(=O)N[C@@H](CC(C)C)C(=O)N[C@@H](CC(C)C)C(=O)N[C@@H](CCCCN)C(=O)N[C@@H](CCC(N)=O)C(=O)N[C@@H](CCC(=O)O)C(=O)N[C@@H](CCCNC(=N)N)C(=O)N[C@@H](CCC(N)=O)C(=O)N[C@@H](CCCCN)C(=O)NC(C)(C)C(=O)N[C@@H](CCC(N)=O)C(=O)N[C@@H](CCCNC(=N)N)C(=O)N[C@@H](CCC(N)=O)C(=O)N[C@@H](CCC(N)=O)C(=O)N[C@@H](C)C(=O)N[C@@H](CCC(=O)O)C(=O)N[C@@H](CCCCN)C(=O)N[C@@H](CC(N)=O)C(=O)N[C@@H](CCCCN)C(=O)N[C@@H](CCC(N)=O)C(=O)N[C@H](C(=O)N[C@@H](CC(C)C)C(=O)N[C@@H](C)C(=O)N[C@@H](CCC(N)=O)C(=O)N[C@H](C(N)=O)C(C)C)[C@@H](C)CC)[C@@H](C)CC)[C@@H](C)CC)C(C)C)C(C)C
B2: peptide of SEQ ID NO: 207 (peptide)
peptide: IVLSLD[dV]PIGLK([γGlu-Palmitoyl])QILLKQERQKK[Aib]REQAETNKRILERV-NH2
modifications: N-terminus assumed
SMILES: CCCCCCCCCCCCCCCC(=O)N[C@@H](CCC(=O)NCCCC[C@H](NC(=O)[C@H](CC(C)C)NC(=O)CNC(=O)[C@@H](NC(=O)[C@@H]1CCCN1C(=O)[C@H](NC(=O)[C@H](CC(=O)O)NC(=O)[C@H](CC(C)C)NC(=O)[C@H](CO)NC(=O)[C@H](CC(C)C)NC(=O)[C@@H](NC(=O)[C@@H](N)[C@@H](C)CC)C(C)C)C(C)C)[C@@H](C)CC)C(=O)N[C@@H](CCC(N)=O)C(=O)N[C@H](C(=O)N[C@@H](CC(C)C)C(=O)N[C@@H](CC(C)C)C(=O)N[C@@H](CCCCN)C(=O)N[C@@H](CCC(N)=O)C(=O)N[C@@H](CCC(=O)O)C(=O)N[C@@H](CCCNC(=N)N)C(=O)N[C@@H](CCC(N)=O)C(=O)N[C@@H](CCCCN)C(=O)N[C@@H](CCCCN)C(=O)NC(C)(C)C(=O)N[C@@H](CCCNC(=N)N)C(=O)N[C@@H](CCC(=O)O)C(=O)N[C@@H](CCC(N)=O)C(=O)N[C@@H](C)C(=O)N[C@@H](CCC(=O)O)C(=O)N[C@H](C(=O)N[C@@H](CC(N)=O)C(=O)N[C@@H](CCCCN)C(=O)N[C@@H](CCCNC(=N)N)C(=O)N[C@H](C(=O)N[C@@H](CC(C)C)C(=O)N[C@@H](CCC(=O)O)C(=O)N[C@@H](CCCNC(=N)N)C(=O)N[C@H](C(N)=O)C(C)C)[C@@H](C)CC)[C@@H](C)O)[C@@H](C)CC)C(=O)O
B3: peptide of SEQ ID NO: 208 (peptide)
peptide: IVLSLD[dV]PIKLK([γGlu-Palmitoyl])QILLKQERQK[Aib]QRQQAEKNKQILAQV-NH2
modifications: N-terminus assumed
SMILES: CCCCCCCCCCCCCCCC(=O)N[C@@H](CCC(=O)NCCCC[C@H](NC(=O)[C@H](CC(C)C)NC(=O)[C@H](CCCCN)NC(=O)[C@@H](NC(=O)[C@@H]1CCCN1C(=O)[C@H](NC(=O)[C@H](CC(=O)O)NC(=O)[C@H](CC(C)C)NC(=O)[C@H](CO)NC(=O)[C@H](CC(C)C)NC(=O)[C@@H](NC(=O)[C@@H](N)[C@@H](C)CC)C(C)C)C(C)C)[C@@H](C)CC)C(=O)N[C@@H](CCC(N)=O)C(=O)N[C@H](C(=O)N[C@@H](CC(C)C)C(=O)N[C@@H](CC(C)C)C(=O)N[C@@H](CCCCN)C(=O)N[C@@H](CCC(N)=O)C(=O)N[C@@H](CCC(=O)O)C(=O)N[C@@H](CCCNC(=N)N)C(=O)N[C@@H](CCC(N)=O)C(=O)N[C@@H](CCCCN)C(=O)NC(C)(C)C(=O)N[C@@H](CCC(N)=O)C(=O)N[C@@H](CCCNC(=N)N)C(=O)N[C@@H](CCC(N)=O)C(=O)N[C@@H](CCC(N)=O)C(=O)N[C@@H](C)C(=O)N[C@@H](CCC(=O)O)C(=O)N[C@@H](CCCCN)C(=O)N[C@@H](CC(N)=O)C(=O)N[C@@H](CCCCN)C(=O)N[C@@H](CCC(N)=O)C(=O)N[C@H](C(=O)N[C@@H](CC(C)C)C(=O)N[C@@H](C)C(=O)N[C@@H](CCC(N)=O)C(=O)N[C@H](C(N)=O)C(C)C)[C@@H](C)CC)[C@@H](C)CC)C(=O)O
B4: peptide of SEQ ID NO: 192 (peptide)
peptide: IVLSLD[dV]PIKLK([γGlu-C16 diacid])QILLKQERQKKQRQQAEKNKQILAQV-NH2
modifications: N-terminus assumed
SMILES: CC[C@H](C)[C@H](N)C(=O)N[C@H](C(=O)N[C@@H](CC(C)C)C(=O)N[C@@H](CO)C(=O)N[C@@H](CC(C)C)C(=O)N[C@@H](CC(=O)O)C(=O)N[C@@H](C(=O)N1CCC[C@H]1C(=O)N[C@H](C(=O)N[C@@H](CCCCN)C(=O)N[C@@H](CC(C)C)C(=O)N[C@@H](CCCCNC(=O)CC[C@H](NC(=O)CCCCCCCCCCCCCCC(=O)O)C(=O)O)C(=O)N[C@@H](CCC(N)=O)C(=O)N[C@H](C(=O)N[C@@H](CC(C)C)C(=O)N[C@@H](CC(C)C)C(=O)N[C@@H](CCCCN)C(=O)N[C@@H](CCC(N)=O)C(=O)N[C@@H](CCC(=O)O)C(=O)N[C@@H](CCCNC(=N)N)C(=O)N[C@@H](CCC(N)=O)C(=O)N[C@@H](CCCCN)C(=O)N[C@@H](CCCCN)C(=O)N[C@@H](CCC(N)=O)C(=O)N[C@@H](CCCNC(=N)N)C(=O)N[C@@H](CCC(N)=O)C(=O)N[C@@H](CCC(N)=O)C(=O)N[C@@H](C)C(=O)N[C@@H](CCC(=O)O)C(=O)N[C@@H](CCCCN)C(=O)N[C@@H](CC(N)=O)C(=O)N[C@@H](CCCCN)C(=O)N[C@@H](CCC(N)=O)C(=O)N[C@H](C(=O)N[C@@H](CC(C)C)C(=O)N[C@@H](C)C(=O)N[C@@H](CCC(N)=O)C(=O)N[C@H](C(N)=O)C(C)C)[C@@H](C)CC)[C@@H](C)CC)[C@@H](C)CC)C(C)C)C(C)C
B5: peptide of SEQ ID NO: 204 (peptide)
peptide: IVLSLD[dV]PIKLK([γGlu-Palmitoyl])QILLKQERQK[Aib]QREQAEKNKQILAQV-NH2
modifications: N-terminus assumed
SMILES: CCCCCCCCCCCCCCCC(=O)N[C@@H](CCC(=O)NCCCC[C@H](NC(=O)[C@H](CC(C)C)NC(=O)[C@H](CCCCN)NC(=O)[C@@H](NC(=O)[C@@H]1CCCN1C(=O)[C@H](NC(=O)[C@H](CC(=O)O)NC(=O)[C@H](CC(C)C)NC(=O)[C@H](CO)NC(=O)[C@H](CC(C)C)NC(=O)[C@@H](NC(=O)[C@@H](N)[C@@H](C)CC)C(C)C)C(C)C)[C@@H](C)CC)C(=O)N[C@@H](CCC(N)=O)C(=O)N[C@H](C(=O)N[C@@H](CC(C)C)C(=O)N[C@@H](CC(C)C)C(=O)N[C@@H](CCCCN)C(=O)N[C@@H](CCC(N)=O)C(=O)N[C@@H](CCC(=O)O)C(=O)N[C@@H](CCCNC(=N)N)C(=O)N[C@@H](CCC(N)=O)C(=O)N[C@@H](CCCCN)C(=O)NC(C)(C)C(=O)N[C@@H](CCC(N)=O)C(=O)N[C@@H](CCCNC(=N)N)C(=O)N[C@@H](CCC(=O)O)C(=O)N[C@@H](CCC(N)=O)C(=O)N[C@@H](C)C(=O)N[C@@H](CCC(=O)O)C(=O)N[C@@H](CCCCN)C(=O)N[C@@H](CC(N)=O)C(=O)N[C@@H](CCCCN)C(=O)N[C@@H](CCC(N)=O)C(=O)N[C@H](C(=O)N[C@@H](CC(C)C)C(=O)N[C@@H](C)C(=O)N[C@@H](CCC(N)=O)C(=O)N[C@H](C(N)=O)C(C)C)[C@@H](C)CC)[C@@H](C)CC)C(=O)O
B6: peptide of SEQ ID NO: 197 (peptide)
peptide: IVLSLD[dV]PIKLK([γGlu-C16 diacid])QILLKQARQK[Aib]QRAQAEKNKRILERV-NH2
modifications: N-terminus assumed
SMILES: CC[C@H](C)[C@H](N)C(=O)N[C@H](C(=O)N[C@@H](CC(C)C)C(=O)N[C@@H](CO)C(=O)N[C@@H](CC(C)C)C(=O)N[C@@H](CC(=O)O)C(=O)N[C@@H](C(=O)N1CCC[C@H]1C(=O)N[C@H](C(=O)N[C@@H](CCCCN)C(=O)N[C@@H](CC(C)C)C(=O)N[C@@H](CCCCNC(=O)CC[C@H](NC(=O)CCCCCCCCCCCCCCC(=O)O)C(=O)O)C(=O)N[C@@H](CCC(N)=O)C(=O)N[C@H](C(=O)N[C@@H](CC(C)C)C(=O)N[C@@H](CC(C)C)C(=O)N[C@@H](CCCCN)C(=O)N[C@@H](CCC(N)=O)C(=O)N[C@@H](C)C(=O)N[C@@H](CCCNC(=N)N)C(=O)N[C@@H](CCC(N)=O)C(=O)N[C@@H](CCCCN)C(=O)NC(C)(C)C(=O)N[C@@H](CCC(N)=O)C(=O)N[C@@H](CCCNC(=N)N)C(=O)N[C@@H](C)C(=O)N[C@@H](CCC(N)=O)C(=O)N[C@@H](C)C(=O)N[C@@H](CCC(=O)O)C(=O)N[C@@H](CCCCN)C(=O)N[C@@H](CC(N)=O)C(=O)N[C@@H](CCCCN)C(=O)N[C@@H](CCCNC(=N)N)C(=O)N[C@H](C(=O)N[C@@H](CC(C)C)C(=O)N[C@@H](CCC(=O)O)C(=O)N[C@@H](CCCNC(=N)N)C(=O)N[C@H](C(N)=O)C(C)C)[C@@H](C)CC)[C@@H](C)CC)[C@@H](C)CC)C(C)C)C(C)C

target: T1, CRF1R receptor (anti-target); assay: cell-based or functional assay

CRF1/CRF2 ratio (of EC50) | CRF1 EC50 (cAMP, HTRF) [nM] | Binder
134 | 69.1 | B1
6 | 4.18 | B2
2 | 1.43 | B3
68 | 56.6 | B4
3 | 0.44 | B5

target: human corticotropin-releasing factor 2α (CRF2α receptor) (human), Q13324; assay: cell-based or functional assay
Sequence (Q13324 20-411): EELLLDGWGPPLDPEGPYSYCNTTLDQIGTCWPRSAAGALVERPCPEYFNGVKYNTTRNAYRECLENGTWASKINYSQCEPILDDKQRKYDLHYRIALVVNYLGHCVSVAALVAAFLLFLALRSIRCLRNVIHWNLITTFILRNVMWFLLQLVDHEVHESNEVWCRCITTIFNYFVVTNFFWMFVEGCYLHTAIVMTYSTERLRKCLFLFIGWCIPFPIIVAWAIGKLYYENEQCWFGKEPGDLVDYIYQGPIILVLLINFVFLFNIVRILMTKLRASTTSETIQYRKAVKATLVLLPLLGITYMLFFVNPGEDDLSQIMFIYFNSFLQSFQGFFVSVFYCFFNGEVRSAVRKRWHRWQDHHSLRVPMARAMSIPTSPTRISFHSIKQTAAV

EC50 [nM], 0% HSA (cAMP, HTRF) [nM] | Binder
0.46 | B1
0.68 | B2
0.9 | B3
0.83 | B4
2.27 | B6
0.14 | B5

target: human corticotropin-releasing factor 2α receptor (CRF2α receptor) (human), Q13324; assay: cell-based or functional assay
Sequence (Q13324 20-411): as above

CRF2 EC50 (cAMP, HTRF) [nM] | Binder
0.46 | B1
0.68 | B2
0.9 | B3
0.83 | B4
2.27 | B6
0.14 | B5
